# Experimental data taken from patent US20180118786A1 (published 2018).
# Starred links: 1 amine or outer side, 2 acyl side, 3 side chain; linkers in the order of their positions; H or OH if unused. Positions of bridges follow the written chain, without caps; N, C: chain ends. Non-standard residues stand in square brackets, D forms with d. No end group written: not given here. TATA = O=C(CC[*:1])N1CN(C(=O)CC[*:2])CN(C(=O)CC[*:3])C1; Phe(4-guanidino) = N=C(N)Nc1ccc(C[C@H](N)C(=O)O)cc1; hArg = N=C(N)NCCCC[C@H](N)C(=O)O; Agb = N=C(N)NCC[C@H](N)C(=O)O; hLys = NCCCCC[C@H](N)C(=O)O
# T1: human β-FXIIa (HFXIIAB; Molecular Innovations) (human, UniProt P00748 354-362; P00748 373-615)
# T1 chain 1: NGPLSCGQR
# T1 chain 2: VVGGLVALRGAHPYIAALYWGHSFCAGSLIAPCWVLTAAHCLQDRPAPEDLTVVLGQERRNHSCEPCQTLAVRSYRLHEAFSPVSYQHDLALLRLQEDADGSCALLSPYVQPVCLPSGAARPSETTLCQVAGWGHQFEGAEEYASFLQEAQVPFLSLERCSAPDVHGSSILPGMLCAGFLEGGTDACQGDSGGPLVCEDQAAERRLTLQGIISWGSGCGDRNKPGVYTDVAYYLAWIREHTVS
# Target: T1, human β-FXIIa (HFXIIAB; Molecular …)
# Assay: enzyme inhibition
row,Ki,Binder
1,177 nM,"ACFRLPCRQLRCR-NH2 (linker 2-7-12 via TATA; N-terminus assumed; SMILES CC(C)C[C@@H]1NC(=O)[C@H](CCC(N)=O)NC(=O)[C@H](CCCNC(=N)N)NC(=O)[C@@H]2CSCCC(=O)N3CN(CN(C3)C(=O)CCSC[C@@H](C(=O)N[C@@H](CCCNC(=N)N)C(N)=O)NC(=O)[C@H](CCCNC(=N)N)NC1=O)C(=O)CCSC[C@H](NC(=O)[C@H](C)N)C(=O)N[C@@H](Cc1ccccc1)C(=O)N[C@@H](CCCNC(=N)N)C(=O)N[C@@H](CC(C)C)C(=O)N1CCC[C@H]1C(=O)N2) [peptide 66 (FXII618, Arg1 to alanine)]"
2,287 nM,"VCFRLPCRQLRCR-NH2 (linker 2-7-12 via TATA; N-terminus assumed; SMILES CC(C)C[C@@H]1NC(=O)[C@H](CCC(N)=O)NC(=O)[C@H](CCCNC(=N)N)NC(=O)[C@@H]2CSCCC(=O)N3CN(CN(C3)C(=O)CCSC[C@H](NC(=O)[C@@H](N)C(C)C)C(=O)N[C@@H](Cc3ccccc3)C(=O)N[C@@H](CCCNC(=N)N)C(=O)N[C@@H](CC(C)C)C(=O)N3CCC[C@H]3C(=O)N2)C(=O)CCSC[C@@H](C(=O)N[C@@H](CCCNC(=N)N)C(N)=O)NC(=O)[C@H](CCCNC(=N)N)NC1=O) [peptide 65 (FXII618, Arg1 to valine)]"
3,18.5 nM,[hLys]CFRLPCRQLRCR-NH2 (linker 2-7-12 via TATA; N-terminus assumed; SMILES CC(C)C[C@@H]1NC(=O)[C@H](CCC(N)=O)NC(=O)[C@H](CCCNC(=N)N)NC(=O)[C@@H]2CSCCC(=O)N3CN(CN(C3)C(=O)CCSC[C@H](NC(=O)[C@@H](N)CCCCCN)C(=O)N[C@@H](Cc3ccccc3)C(=O)N[C@@H](CCCNC(=N)N)C(=O)N[C@@H](CC(C)C)C(=O)N3CCC[C@H]3C(=O)N2)C(=O)CCSC[C@@H](C(=O)N[C@@H](CCCNC(=N)N)C(N)=O)NC(=O)[C@H](CCCNC(=N)N)NC1=O) [FXII618 variant with R in position 1 replaced by homolysine]
4,231 nM,"ICFRLPCRQLRCR-NH2 (linker 2-7-12 via TATA; N-terminus assumed; SMILES CC[C@H](C)[C@H](N)C(=O)N[C@H]1CSCCC(=O)N2CN3CN(C2)C(=O)CCSC[C@H](NC(=O)[C@@H]2CCCN2C(=O)[C@H](CC(C)C)NC(=O)[C@H](CCCNC(=N)N)NC(=O)[C@H](Cc2ccccc2)NC1=O)C(=O)N[C@@H](CCCNC(=N)N)C(=O)N[C@@H](CCC(N)=O)C(=O)N[C@@H](CC(C)C)C(=O)N[C@@H](CCCNC(=N)N)C(=O)N[C@H](C(=O)N[C@@H](CCCNC(=N)N)C(N)=O)CSCCC3=O) [peptide 64 (FXII618, Arg1 to isoleucine)]"

# Target: T1, human β-FXIIa (HFXIIAB; Molecular …)
# Assay: enzyme inhibition
# Remark: another data set of the same source
row,Ki,Binder
1,336 nM,"RCARLPCRQLRCRW-NH2 (linker 2-7-12 via TATA; N-terminus assumed; SMILES CC(C)C[C@@H]1NC(=O)[C@H](CCC(N)=O)NC(=O)[C@H](CCCNC(=N)N)NC(=O)[C@@H]2CSCCC(=O)N3CN(CN(C3)C(=O)CCSC[C@H](NC(=O)[C@@H](N)CCCNC(=N)N)C(=O)N[C@@H](C)C(=O)N[C@@H](CCCNC(=N)N)C(=O)N[C@@H](CC(C)C)C(=O)N3CCC[C@H]3C(=O)N2)C(=O)CCSC[C@@H](C(=O)N[C@@H](CCCNC(=N)N)C(=O)N[C@@H](Cc2c[nH]c3ccccc23)C(N)=O)NC(=O)[C@H](CCCNC(=N)N)NC1=O) [peptide 6 (peptide 2, Phe3 to alanine)]"
2,413 nM,"RCVRLPCRQLRCRW-NH2 (linker 2-7-12 via TATA; N-terminus assumed; SMILES CC(C)C[C@@H]1NC(=O)[C@H](CCC(N)=O)NC(=O)[C@H](CCCNC(=N)N)NC(=O)[C@@H]2CSCCC(=O)N3CN(CN(C3)C(=O)CCSC[C@H](NC(=O)[C@@H](N)CCCNC(=N)N)C(=O)N[C@@H](C(C)C)C(=O)N[C@@H](CCCNC(=N)N)C(=O)N[C@@H](CC(C)C)C(=O)N3CCC[C@H]3C(=O)N2)C(=O)CCSC[C@@H](C(=O)N[C@@H](CCCNC(=N)N)C(=O)N[C@@H](Cc2c[nH]c3ccccc23)C(N)=O)NC(=O)[C@H](CCCNC(=N)N)NC1=O) [peptide 7 (peptide 2, Phe3 to valine)]"
3,2010 nM,"RCIRLPCRQLRCRW-NH2 (linker 2-7-12 via TATA; N-terminus assumed; SMILES CC[C@H](C)[C@@H]1NC(=O)[C@@H](NC(=O)[C@@H](N)CCCNC(=N)N)CSCCC(=O)N2CN3CN(C2)C(=O)CCSC[C@H](NC(=O)[C@@H]2CCCN2C(=O)[C@H](CC(C)C)NC(=O)[C@H](CCCNC(=N)N)NC1=O)C(=O)N[C@@H](CCCNC(=N)N)C(=O)N[C@@H](CCC(N)=O)C(=O)N[C@@H](CC(C)C)C(=O)N[C@@H](CCCNC(=N)N)C(=O)N[C@H](C(=O)N[C@@H](CCCNC(=N)N)C(=O)N[C@@H](Cc1c[nH]c2ccccc12)C(N)=O)CSCCC3=O) [peptide 8 (peptide 2, Phe3 to isoleucine)]"

# Target: T1, human β-FXIIa (HFXIIAB; Molecular …)
# Assay: enzyme inhibition
# Remark: another data set of the same source
row,Binder,Ki
1,"RCF[hLys]LPCRQLRCRW-NH2 (linker 2-7-12 via TATA) [peptide 38 (peptide 2, Arg4 to homolysine)]",131 nM
2,"RCF[hArg]LPCRQLRCRW-NH2 (linker 2-7-12 via TATA) [peptide 39 (peptide 2, Arg4 to homoarginine)]",181 nM

# Next, values leading:
row,Ki,Binder
1,976 nM,"H-RCF[Phe(4-guanidino)]LPCRQLRCRW-NH2 (linker 2-7-12 via TATA; SMILES CC(C)C[C@@H]1NC(=O)[C@H](CCC(N)=O)NC(=O)[C@H](CCCNC(=N)N)NC(=O)[C@@H]2CSCCC(=O)N3CN(CN(C3)C(=O)CCSC[C@H](NC(=O)[C@@H](N)CCCNC(=N)N)C(=O)N[C@@H](Cc3ccccc3)C(=O)N[C@@H](Cc3ccc(NC(=N)N)cc3)C(=O)N[C@@H](CC(C)C)C(=O)N3CCC[C@H]3C(=O)N2)C(=O)CCSC[C@@H](C(=O)N[C@@H](CCCNC(=N)N)C(=O)N[C@@H](Cc2c[nH]c3ccccc23)C(N)=O)NC(=O)[C@H](CCCNC(=N)N)NC1=O) [peptide 41 (peptide 2, Arg4 to 4-guanidinophenylalanine)]"
2,397 nM,"H-RCF[Agb]LPCRQLRCRW-NH2 (linker 2-7-12 via TATA) [peptide 40 (peptide 2, Arg4 to norarginine)]"

# Target: T1, human β-FXIIa (HFXIIAB; Molecular …)
# Assay: enzyme inhibition
# Remark: another data set of the same source
row,Ki,Binder
1,2660 nM,"RCFRLPCRQARCR [Alanine (30), Leu10]"
2,830 nM,"RCFRLPCRQVRCR [Valine (25), Leu10]"
3,364 nM,"RCFRLPCRQMRCR [Methionine (27), Leu10]"
4,199 nM,"RCFRLPCRQIRCRW-NH2 (linker 2-7-12 via TATA; N-terminus assumed; SMILES CC[C@H](C)[C@@H]1NC(=O)[C@H](CCC(N)=O)NC(=O)[C@H](CCCNC(=N)N)NC(=O)[C@@H]2CSCCC(=O)N3CN(CN(C3)C(=O)CCSC[C@H](NC(=O)[C@@H](N)CCCNC(=N)N)C(=O)N[C@@H](Cc3ccccc3)C(=O)N[C@@H](CCCNC(=N)N)C(=O)N[C@@H](CC(C)C)C(=O)N3CCC[C@H]3C(=O)N2)C(=O)CCSC[C@@H](C(=O)N[C@@H](CCCNC(=N)N)C(=O)N[C@@H](Cc2c[nH]c3ccccc23)C(N)=O)NC(=O)[C@H](CCCNC(=N)N)NC1=O) [peptide 26 (peptide 2, Leu10 to isoleucine)]"
